Assay: label from the status in PepcDB records

Sequence | protein production
SAKDPLAEAGLHFDELNKLRVLEPDVSQKTTELKEECEEFVDKIGQFQKIVGGLIELVDELAKEAETEKMKAIGARNLLKSVEKQREAQHQQLQALIAEKKMQLERYRIEYEALQKVEAEQSEFIDQFILQK | failed
SAMAQKEEGHEAAAAEAKKETDLAHVDQVETFVGKEKYYVVKGTDKKGTALYVWVPADKKAKILSKEAKEGISEDKAAKIIKDEGLVSKQKEVHLAREGNVLLWEVTYLDKEGQYSLSYVDFTTGKILKNITP | not failed
SATERADSADFRTIIRNKIPLMDVRAPVEFGKGAFDLSINYPLMNNDERADVGICYKQNGQEAAIKLGNALVSGQSKARRLTQWQTFARENPQGYLYCFRGGLRSQTVQRWLKESGINYPLITGGYKALRQFLLNELEQLALH | failed
SCGDKMNKNTGALEFDSIQVNETAHLFGDTAKPACNLTINFAYPVKSTDNKLKDSLNSYFIAACFGEGYIGEKPAQVVKEYTEHYVKEYRTDLEPMYAEDEKNKESEGSIGAWYSYYKGIESHVQLYYKNLLVYRINYNEYTGGAHGIYMTTFLNMDLINLRPLKLDDIFTGDYKEALTDLLWNQLMADKKVTTHEALEDMGYGSTGDIAPTENFYLDKDGITFYYNVYDITPYAMGPVEIKIPYEMMEHMLGSNPIIGEMKSK | not failed
SDPLYVPDPDPTKFPVNRNLTRKAGYLNARNKTGLVSSTWDRQFYFTQGGNLMSQARGDVAGGLAMDIDNCSVMAVDCEDRRYCFQITSFDGKKSSILQAESKKDHEEWICTINNISKQIYLSENPEETAARVNQSALEAVTPSPSFQQRHESLRPAAGQSRPPTART | failed
SEEEEYEQIPQENPPEELSQDPVLELSGGLREKEQKTPRRLRLILMGKTGSGKSATGNSILGRDVFESKLSTRPVTKTSQRRSREWAGKELEVIDTPNILSPQVSPEVADAICQAIVLSAPGPHAVLLVTQLGRFTDEDQQVVRRLQEVFGVGVLGHTILVFTRKEDLAGGSLEDYVRETNNQALAWLDVTLARRHCGFNNRAQGEEQEAQLRELMEKVEAIMWENEGDYYSNKAYQYTQQNFRLKELQERQVSQGQGSEDVPGEESWLEGLSQIQKESEEAHRCLLGKADL | not failed
SELSQLLNEIRANYEKILTRNQIETVLSTRIQLEEDISKKMDKDEEALKAAQAELKEARRQWHHLQVEIESLHAVERGLENSLHASEQHYQMQLQDLETVIEGLEKELQEVRRGIEKQLQEHEMLLNTKMRLEQEIATYRHLLEKEEIRYYGCIQGGKKDKKPTTSRVGFVLPSAIINEISFTTKVPQKYENENVETVTKQAILNGSIVKESTEAHGTIQTEKVDEVIKEWEGSFFKDNPRLRKKSVSLRFDLHLAATDEGCLETKQDNLPDIEVRLIMRRSCSIPSIKPPSTAN | not failed
SESQSEEIDCNDKDLFKAVDAALKKYNSQNQSNNQFVLYRITEATKTVGSDTFYSFKYEIKEGDCPVQSGKTWQDCEYKDAAKAATGECTATVGKRSSTKFSVATQTCQITPAEGPVVTAQYDCLGCVHPISTQSPDLEPILRHG | not failed
SFGVKDAIFKIKRSIAGTDSSDSTAYTTASESSPQLKDSHNPFRNKTTSERTIVEEGSLPPVRLNGYLPSTKNKLLTPEMCDEIRTLMPTRIQLYTEWNLLYSLEQHGSSLHSLYSNVAPDSKEFRRVGYVLVIKDRKNGIFGAYSNEAFHPNEHRQYTGNGECFLWKLDKVPDVNISEKEESEQEGKEGKEEGDKEERWRFSGYPYTGVNEFAIYCTSEFLSMGAGDGHYGLLCDDGLLHGVSNPCQTYGNEVLSKEGKKFSIVALEVWRVG | not failed
SFPNRRIVTTVFNDEGIQFLVTRYIKALNPPQQLLDIFLHNSNATFDLIARFVSLIPFVPNTPDENDGSDIWMTSEHCISLAIGNKEEHAILLCNFFLYFGKKALVLLGTSVLEGHVAYVVTQETNEYLLWNPSTGQCYKQFDPFCPLKSVDCLFDDRNVWFNIQQNNTPMAVFFDYSKESFWKQLLPKNVQGTKIQSIQVTGFPIQMPYIDVQSIIDAVYQTGIHSAEFPQTEFALAVYIHPYPNNILSVWVYLASLVQHQ | not failed
SGESIPLAAPVPVEQAVLETFFSHLGIFSYDKAKDNVEKEREANKSAGGSWLSLLAALAHLAAAEKVYHSLTYLGQKLGGQSFFSRKDSIRTIYTSLHNELKKVVAGRGAPGGTAPHVEELLPHLSEQLCFFVQARMEIADFYEKMYALSTQKFINTEELVSTLDTILRKYSSRFHHPILSPLESSFQLEVGVLSHLLKAQAQISEWKFLPSLVTLHNAHTKLQSWGQTFEKQRETKKHLFGGQSQKAVQPPHLFLWLMKLKTMLLAKFSFYFHEALSRQTTASEMKALTAKANPDLFGKISSFIRKYDAANVSLIFDNRGSESFQGHGYHHPHSYREAPKGVDQYPAVVSLPSDRPVMHWPNVIMIMTDRASDLNSLEKVVHFYDDKVQSTYFLTRPEPHFTIVVIFESKKSERDSHFISFLNELSLALKNPKVFASLKPGSKG | not failed
SGMLERLPLCGKAFADMMGKVDVWKWCNLSEFIVYYESFTNCTEMEANVVGCYWPNPLAQGFITGIHRQFFSNCTVDRVHLEDPPDEVLIPLIVIPVVLTVAMAGLVVWRSKRTDTLL | failed
SGQAYIGTYPNGDKIFVKINTTPILAALAKEQIAPQLLWAKRLGNGDMMSAQEWLDGRLLTRADMNSKQIIQVLLQMHKSKPLVNQLLQLNYKVETPLDLLLSWERSAPYQISENAYLQSVVAEMKRNLPDFKKDYATIVHGDVRHSNWVITTSGLVYLVDWDSVRVTDRMYDVAHILSHYIPHTRWAEWLSYYGYKQNTKVFQKIKWYGQLSYLSQILKYYENR | failed
SHLVVESFPSYRDVTLFEGKRVSFYKRAQILVADTWSVLEGKGDGCFKDISSITMFADYRLPQVLAHLGALKYSDDLLKKLLKGEMLSYGDRQEVEIRGCSLWCVELIRDCLLELIEQKGEKPNGEINSILLDYYLWDYAHDHREDMKGIPFHRIRCIYY | failed
SIDAICAYFYAGYDVPRVLNEGGWFFLENILLIKSVGGRKPPLTDNKLRIKFLQTTKMTHVPNREPSSLFRFAAFSMIENKTINSSTVHDAYGIVVRVGNITRPDFVPQASENTILSQFLEFEIKNSWGKSLICVASGYTCELFVQLWRELGLELGYHWNFGMNPTICVLRFWNVDDHEGRQCLISHNGASKITFNQSYPEINMDRVRTQFLQRMQTPELGEVVDEN | not failed
SIQGKVALIAGGAKNLGGLIARDLAAHGARAIAIHYNSPASKADADATVAALQAAGAQAVALQGDLTTAAAVEKLYADALAAVGRPDIAINTVGKVLKKPFSEISEAEYDEMAAVNAKSAFFFLKEAGRHVNDHGKIVTLVTSLLGAFTPFYSAYAGTKAPVEHYTRAAAKEFGARGISVTAVGPGPMDTPFFYGQESPEAVAYHQSAAALSPHSPTGLTHIEDVVPFIRHLVSDGWWITGQTLLINGGY | failed
SIQKDLANIAEVEVSIPAKLHNSLIGTKGRLIRSIMEECGGVHIHFPVEGSGSDTVVIRGPSSDVEKAKKQLLHLAEEKQTK | not failed
SISNRDTNGMPFAKETLEQQQAVEKKNEILEMSYEIAKLLETGLDRETLQVAIELLEQGFDPYALASVIKELKRGNNQTTE | failed
SKETIMNQKLTKRQAEVHTGRKGTAHRKKVVHTTAEDKKFQFSLKKLGVNNIPGIEEVNMFTHQGTVIHFNNPEVQASLAANTFTMTGHAETKQLTEMLLSIDHKPVLQMV | not failed
SKNEKEQLSKAKASVSSLNKVIQTKLTVGNLGLGLVVIQNGPYLQISHLINKGAAASDGILQPGDVLISVGHANVLGYTLREFLKLLQNITIGTVLQIKAYRGFLEIPQEWQD | not failed
SLEEVVNELTEEIRELYTADQVPWVIGYSGGKDSTAVLQLVWMALKGLPAEQRTKAVHVISTDTLVENPVVAAWVSASLGTMQDAAQAQGLPVEPHRLTPEIKDTFWVNLLGRGYPAPRPKFRWCTERLKIKPSNAFIRSVVAAHGEAIMVLGIRKTESQARARAMEKHEKRRVRDRLSPNANLPNSLVYSPVEDWTNDDVWEFLMQKPNPWGYTNQDLLTMYQGASSDGECPLVVDSTTPSCGSSRFGCWT | failed
SLETVQLRNPPRRQLKKLDEDSLTKQPEEVFDVLEKLGEGSYGSVYKAIHKETGQIVAIKQVPVESDLQEIIKEISIMQQCDSPHVVKYYGSYFKNTDLWIVMEYCGAGSVSDIIRLRNKTLTEDEIATILQSTLKGLEYLHFMRKIHRDIKAGNILLNTEGHAKLADFGVAGQLTDTMAKRNTVIGTPFWMAPEVIQEIGYNCVADIWSLGITAIEMAEGKPPYADIHPMRAIFMIPTNPPPTFRKPELWSDNFTDFVKQCLVKSPEQRATATQLLQHPFVRSAKGVSILRDLINEAMDVKLKRQESQQREEG | not failed
SLKGKIEWVRVSAVVHSTEDREKVGEAISTLFPFEFEIAVSKAKGHYGNPMEYLEVELTKSSEIKKFWKNLLELLGEQAEEILSTLEDRIDEQNVLHIRIDKQKAYLGEVSLTSGGDPIAVKLRLVTYPSKREKVIEFARELCTIS | not failed
SLNDLPGAGRMDVLCRCTSQALFISHGIRRDVEVYLLLLGPPSPPKSILIKGDEVRRMSPDERNVAGHIKKALAVECGKSWKKVHSGVYVSRKGLEELIEELSEKYSIIYLKEDGVDISNAQLPPNPLFVIGDHEGLTEEQEKVVERYAALKLSLSPLSLLAEQCVVIAHHHLDRLQF | not failed
SLQTSDVVIHRKENEGFGFVIISSLNRPESGSTITVPHKIGRIIDGSPADRCAKLKVGDRILAVNGQSIINMPHADIVKLIKDAGLSVTLRIIPQEELNSP | not failed
SLRTKSWTDDLKVCNQTGVGEAINQIYKDDGRRCEGYESRDKKCLCISDNNTSLYAILSGHNGVTVAENALQEMAAELLLGQLNVCNTDEAVKELIRQSFMSVEKGYFDSINPHVATKTAIQLHLSADGMNQYEISQQFENVLQKLDSLNNALSVGSSAVLALIHRSHLYLGNIGNCRALLCKTDEHDTLTVTQLSVDHNLLNAEEAARLFRLGLMAQNFEGVPLYSTRCIGNYLGKAGYKDCNFLSSATAEPVIFEPEIVGGIQITPACRFLVLMSSGLCRALHEIFPGDASTGNRELVRMISEEFQNQSTLGGVAQSVVHRIVQAHHDTYMQLVEEHRSVTFNSRDDVTLLIRNFNYA | not failed
SLSRTVHHQQTAEITQQAADFIRYMNAINDYLYQHPERRAAGGQLTSAQLGLPATKNVSHLISQQRVFVWAKEKPGLMGALLEQSGDSALLARVENGRLLDTHGRRISITLPAVIPDQVIIWMN | not failed
SLSSTQSVNSVLAPGNLRKVHHIALNVQDMQASRYFYGTILGLHELTDDEVPATLTELVASGKVANFITPDGTILDLFGEPELSPPDPNPEKTFTRAYHLAFDIDPQLFDRAVTVIGENKIAIAHGPVTRPTGRGVYFYDPDGFMIEIRCDPEAEG | not failed
SLVDGKLVCVTGAGGYIASWIVKLLLERGYTVRGTVRNPTDPKNNHLRELQGAKERLTLHSADLLDYEALCATIDGCDGVFHTASPMTDDPETMLEPAVNGAKFVIDAAAKAKVKRVVFTSSIGAVYMNPNRDTQAIVDENCWSDLDFCKNTKNWYCYGKMLAEQSAWETAKAKGVDLVVLNPVLVLGPPLQSAINASLVHILKYLTGSAKTYANLTQVYVDVRDVALGHVLVYEAPSASGRYILAETALHRGEVVEILAKFFPEYPLPTKCSDEKNPRAKPYKFTTQKIKDLGLEFKPIKQSLYESVKSLQEKGHLPLPQDSNQNEVIIES | failed
SLWQPQTGDIIFQISRSSQSKAIQLATHSDYSHTGMLVMRNKKPYVFEAVGPVKYTPLKQWIAHGEKGKYVVRRVEGGLSVEQQQKLAQTAKRYLGKPYDFSFSWSDDRQYCSEVVWKVYQNALGMRVGEQQKLKEFDLSNPLVQAKLKERYGKNIPLEETVVSPQAVFDAPQLTTVAKEWPLFSW | not failed
